The values below come from the RNAGym collection of RNA variant scans (doi:10.1073/pnas.2313332121).

The labels stand for the following.
B1: TPR t1 (parent)
chain: GACCAAUCUGCCCUCAGAGCUCGAGAACAUCUUCGGAUGCAGAGGAGGCAGGCUUCGGUGGCGCGAUAGCGCCAACGUCCUCAACCUCCAAUGCAUCCCACCACAUGAUGAUGCCUGAAGAGCCUUGGUUUUUUG

The data set covers variants of B1. The data set is described as follows: polymerase ribozyme fitness, log enrichment relative to wild type (log ratio); higher = more active; in vitro selection for triplet polymerase activity. Put shortly: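 A single round of triplicate in vitro selection, including frozen incubation at −7 °C, was applied to PCR-built, transcribed mutant libraries of each subunit of a heterodimeric triplet polymerase ribozyme. Illumina sequencing of input and output libraries retained genotypes with ≥10 input reads and ≥1 read per output. Fitness is the base-2 logarithm of genotype enrichment divided by wild-type enrichment, from inverse-variance-weighted replicate averages.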
C8G G36U: the “polymerase ribozyme fitness (log ratio)” value is 0.298.
Then C8A C72G C101G, with -2.08; and C8G G63U G77C U129C, with -2.81.
As to C8A C12G G61C C123A, the “polymerase ribozyme fitness (log ratio)” value was -0.379.
Then C8U C22G G45A G47C A100U, with -4.96; and C8G C82A C97A, with -4.13.
As for C8G A111C G113U, the figure is -3.45; as for C8A U9G C94G, -0.653; as for C8G G61A, 0.403.
As to C8G G61C, the “polymerase ribozyme fitness (log ratio)” value was -1.09.
With C8A A43C G57A C72G U96C A103G A108G U109G, the “polymerase ribozyme fitness (log ratio)” value was -5.5.
On to C8A A41U U112C, for which the “polymerase ribozyme fitness (log ratio)” value was found to be 0.774.
Then C8G U9G C12A G69A C88G U132A, with -4.01; and C8A G58C, with 0.847; and C8U G36A A66C A84C G117A, with -3.32.
C8A A37G C62G C72G U112G G127A: the “polymerase ribozyme fitness (log ratio)” value is -5.98.
As to C8G G48U G113A U126C, the “polymerase ribozyme fitness (log ratio)” value is -0.687.
Then C8G C13A A91G U106G G117U, with -3.24.
As for C8G G23A G61U U109A U112A, the “polymerase ribozyme fitness (log ratio)” value is -6.91.
Then C8A C56G, with 0.28; and C8U C72U U87C, with 0.806.
Then C8A U32A A90G, with -4.24; and C8G A50C, with 0.0345; and C8A C28A C56U C82U U106A C115A, with -2.02.
As to C8U C80G, the “polymerase ribozyme fitness (log ratio)” value was -4.55.
Then C8U C11A, with 0.824; and C8G G52U C64U C73U U96G, with -1.4; and C8U G57U G110U, with -1.01.
As for C8G C12U A68G G122A C123U, the figure is -1.28; as for C8G U32G C101U C124A, -4.92.
Then C8A G19C U59A C82A, with -3.12; and C8G G17U, with -0.274; and C8G U30C, with -2.51.
As for C8G C20U A84U G122U, the “polymerase ribozyme fitness (log ratio)” value was -0.907.
As for C8G C56G, the figure is 0.255; as for C8A A29U G69U, -0.0842; as for C8U A74G C123G, 1.71.
As for C8U C40U, the figure is 0.0119; as for C8A C40U A103C, -3.75; as for C8U C40G G63U A100G, -5.92.
For C8G A16U A18U G58C C79A U109A, the “polymerase ribozyme fitness (log ratio)” value is -6.59.
As for C8U A29G A43G, the figure is -3.05; as for C8A G63C U78C U81A C101A U109G, -5.76.
As for C8U C22A A26G C28U C34A G63U C104A U112C G135A, the figure is -2.92.
Turning to C8A G58C U59C A105C U132A, the “polymerase ribozyme fitness (log ratio)” value is -2.68.
As for C8U A24G U112G, the “polymerase ribozyme fitness (log ratio)” value is -0.0167.
As to C8G U14G C53U G71A, the “polymerase ribozyme fitness (log ratio)” value is -0.0624.
As for C8U G19A U21C U55C, the figure is -2.54.
On to C8G A46G A83G U126G G127A, for which the “polymerase ribozyme fitness (log ratio)” value is -1.72.
Then C8U G52A A74U U112C, with 1.59; and C8G G39A G63U A84U, with -1.03; and C8G C11G G36U G71C U78G U132A, with -4.02.
Then C8G U9G C73G C123A, with 1.1; and C8U A50U C94A, with -1.52.
Then C8G A43C G45A A50G G113U G120C, with -2.24; and C8G C114U C123A, with -0.55; and C8G C15A G39A G52C U59A C89A G117A, with -2.57.
Turning to C8G G117C, the “polymerase ribozyme fitness (log ratio)” value was -0.943.
For the variant C8G G117U, the “polymerase ribozyme fitness (log ratio)” value was -1.44.
In the case of C8A G19A U87C A91C G113C G127C, the “polymerase ribozyme fitness (log ratio)” value is -2.18.
As for C8G, the figure is 0.574.
As for C8U, the figure is 0.471.
Then C8A G71A C104A, with -2.19.
Regarding C8A C123U, the “polymerase ribozyme fitness (log ratio)” value amounted to 1.44.
Consider C8G G48A G63C C72U C88A, for which the “polymerase ribozyme fitness (log ratio)” value was -4.05.
In the case of C8G G35C, the “polymerase ribozyme fitness (log ratio)” value is -4.29.
As for C8G C11U G63U C124A, the “polymerase ribozyme fitness (log ratio)” value was 1.09.
As for C8G A16C U87A, the figure is -0.437.
Regarding C8U G42A C88U, the “polymerase ribozyme fitness (log ratio)” value was -0.816.
As for C8G A41G G71A U78G G122U, the figure is -1.62; as for C8U C64A U78C, -6.51; as for C8U C12G, 0.586.
Consider C8A C82G, for which the “polymerase ribozyme fitness (log ratio)” value was -0.777.
Consider C8G G39U C80A, for which the “polymerase ribozyme fitness (log ratio)” value was -2.47.
Then C8G C101A, with -0.236; and C8A G39U C64U A111U U116G U129G, with -5.99; and C8G C73G A91G, with -1.87.
As for C8U A24G G48C C115G, the figure is -3.87; as for C8A A46G C101U, -0.289.
On to C8G C72U C89A A105U, for which the “polymerase ribozyme fitness (log ratio)” value was -3.93.
For the variant C8G C20U A46U G52C A91G, the “polymerase ribozyme fitness (log ratio)” value was -4.53.
Then C8U A100C G117A, with -1.87.
As for C8A G48A C101G C115U, the figure is -4.25; as for C8G C82U C97U G127C, -0.232.
